T1: human endothelin receptor sub-type B (human, UniProt P24530 27-442)
T1 construct: no signal peptide limits are stated; also called ETB-R; ETBR
T1 sequence: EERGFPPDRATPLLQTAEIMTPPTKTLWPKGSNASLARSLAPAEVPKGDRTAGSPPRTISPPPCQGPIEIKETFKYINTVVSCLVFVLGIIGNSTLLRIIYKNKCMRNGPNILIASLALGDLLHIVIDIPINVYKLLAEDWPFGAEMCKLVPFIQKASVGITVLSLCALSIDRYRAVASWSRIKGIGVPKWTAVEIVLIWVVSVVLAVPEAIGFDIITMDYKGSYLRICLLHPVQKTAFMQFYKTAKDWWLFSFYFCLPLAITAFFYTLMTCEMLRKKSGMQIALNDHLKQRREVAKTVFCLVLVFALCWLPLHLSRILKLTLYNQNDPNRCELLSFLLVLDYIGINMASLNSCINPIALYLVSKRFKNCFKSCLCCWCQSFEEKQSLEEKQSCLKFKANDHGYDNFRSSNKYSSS

T2: peptide C7 of the ETB-R Pep-scan membrane (human)
T2 construct: Residues are inferred as for C5, from the one-residue offset and C11 = 71-82
T2 peptide: APAEVPKGDRTA

T3: peptide C8 of the ETB-R Pep-scan membrane (human)
T3 construct: Residues are inferred as for C5, from the one-residue offset and C11 = 71-82
T3 peptide: PAEVPKGDRTAG

T4: peptide C9 of the ETB-R Pep-scan membrane (human)
T4 construct: Residues are inferred as for C5, from the one-residue offset and C11 = 71-82
T4 peptide: AEVPKGDRTAGS

T5: peptide C10 of the ETB-R Pep-scan membrane (human)
T5 construct: Residues are inferred as for C5, from the one-residue offset and C11 = 71-82
T5 peptide: EVPKGDRTAGSP

T6: peptide C5 of the ETB-R Pep-scan membrane (human)
T6 construct: The peptides are 12-mers offset by one residue, C11 is stated to be 71-82, and C5-C10 share 70-76
T6 peptide: SLAPAEVPKGDR

T7: peptide C6 of the ETB-R Pep-scan membrane (human)
T7 construct: Residues are inferred as for C5, from the one-residue offset and C11 = 71-82
T7 peptide: LAPAEVPKGDRT


Legend:
[1] = biological target: T1, human endothelin receptor sub-type B; assay: flow cytometry on CHO-ETBR cells; apparent KD = concentration giving 50% of plateau MFI
[2] = biological target: T1, human endothelin receptor sub-type B; assay: flow cytometry on CHO-ETBR cells pre-incubated 2 h at 37° C. with 300 nM endothelin 1 (receptor internalised)
[3] = biological target: T2, peptide C7 of the ETB-R Pep-scan …; assay: Pep-scan peptide membrane, 1 µg/ml antibody, chemiluminescent detection
[4] = biological target: T3, peptide C8 of the ETB-R Pep-scan …; assay: as above
[5] = biological target: T4, peptide C9 of the ETB-R Pep-scan …; assay: as above
[6] = biological target: T5, peptide C10 of the ETB-R Pep-scan …; assay: as above
[7] = biological target: T6, peptide C5 of the ETB-R Pep-scan …; assay: as above
[8] = biological target: T7, peptide C6 of the ETB-R Pep-scan …; assay: as above

Kd [1] [nM]	drop of binding after pre-incubation of the cells with 300 nM endothelin 1 [2] [%]	binding result [3]	binding result [4]	binding result [5]	binding result [6]	binding result [7]	binding result [8]	Binder
~1	> 50	–	–	–	–	–	–	Rendomab-B41 (antibody, IgG1, V domains shown, Murine monoclonal IgG1/kappa purified from ascites; also called hybridoma CNCM I-5104) VH: QVQLQQPGAELVKPGASVKLSCKASGYTFTSYWMHWVKQRPGRGLEWIGRIDPDSGGTKYNEKFKSKATLTVDKPSNTANMQLSSLTSEDSAVYYCVREGWDAWFVYWGQGTLLTVSA VL: DVLMTQTPLSLPVSLGDQASISCRSSQSIVHSNGNTYLEWYLQKPGQSPKLLIYKVFNRFSGVPDRFSGSGSGTDFTLKISRVEAEDLGVYYCFQGSHVPLTFGAGTKLELKR
~1	> 50	–	–	–	–	–	–	Rendomab-B36 (antibody, IgG3, V domains shown, Murine monoclonal IgG3/kappa purified from ascites; also called hybridoma CNCM I-5103) VH: QVQLQQPGAELVKPGASVKLSCKASGYTFTSYWIHWVNQRPGRGLEWIGRIDPNSGGTKYNEKFKSKATLTVDKTSSTAYMQFSSLTSEDSAVYYCAREGEFAWFAYWGQGTLVTVSA VL: DVLMTQTPLSLPVSLGDQASISCRSSQNIVHSNGYTYLEWYLQKPGQSPKLLIYKVSNRFSGVPDRFSGSGSGTDFTLKISRVEAEDLGVYYCFQGSHVPLTFGSGTKLEIKR
–	–	binds	binds	binds	binds	binds	binds	Rendomab-B49 (antibody, IgG1, V domains shown, Murine monoclonal IgG1/kappa purified from ascites; also called hybridoma CNCM I-5084) VH: QVQLQQPGAALVKPGASVKLSCKASGYTFISYWMLWVKQRPGRGLEWIGRIDPDSGGTKYNEKFKSKATLTVDKSSSTAYMQLSSLTSEDSAVYYCAREGDYAWFAYWGQGTLVPVSA VL: DVLMTQTPLSLPVSLGDQASISCRSSQSIVHSNGNTYLEWYLQKPGQSPKLLIYKVSNRFSGVPDRFSGSGSGTDFTLKISRVEAEDLGVYYCFQGSHVPWTFGGGTKLEIK
